Experiment: yeast display, Sf9 membrane polyspecificity reagent, FACS + sequencing; frameworks hold sequencing errors
How it was run: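 A synthetic nanobody library was expressed on Saccharomyces cerevisiae BJ5465 by galactose induction for 36–48 hours. The library was stained for 1 hour at 4 °C with 10% biotinylated, detergent-solubilized Sf9 membrane reagent and enriched with streptavidin microbeads before FACS. Low and high (top ~1%) gates were set on anti-HA fluorescence for expression and streptavidin fluorescence for reagent binding, and each polyreactivity label reflects the gate of origin.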

| Sequence | polyreactivity (PSR sort gate) |
| --- | --- |
| QVQLVESGGGLVQAGGSLRLSCAASGSNFLIYAMGSYSQAPGKERELVAAITFSGCSTYADSVKGRFTISRENAKNTVYLQMNSLKPEDTAVYYCAADSTKYAYDYWGQGTQVTVSS | low polyreactivity |
| QVQLVESGGGLVQAGGSLRLSCAASGSNFLPNAMGWYRQAPGKERELVAAISWSDDSTYYADSVKGRFTISRDNAKNTVDLQMNSLNPEDTAVYYCAADVGLWYDYWGQGTQVTVSS | high polyreactivity |
| QVQLVESGGGLVQAGGSLRLSCAASGSNFRVYAMGWYRQAPGKESELVAAIDSGTSTTYADSVKGRFTISRDNAKNTVYLQMNSLKPEDTAVYYCAADGWLWSFTGDGWWFDYWGQGTQVTVSS | low polyreactivity |
| QVQLVESGGGLVQAGGSLRLSCAASGSNFSDYAMGWYRQAPGKEREFVATITWSGTSTYYADSVKGRFTISRDNAKNTVYLQMNSLKAEDTAVYYCAAELLFWLGLVPGTIFDEFDYWGQGTQVTVSS | low polyreactivity |
| QVQLVESGGGLVQAGGSLRLSCAASGSNFSRYAMGWYRQAPGKERDLVAAITSTGDSTSYADSVKGRFTISRDNAKNTVYVQMNSLKPEDTAVYYCAIVYVYRYVIPYDYWGQGTQVTVSS | low polyreactivity |
| QVQLVESGGGLVQAGGSLRLSCAASGSNFTNAMGWYRQAPGKERELVASIDANAGDTHYADSVKGRFTISRDNAKNTVYLQLNSLKPEDTAVYYCNADVTERLWTGEDDYWGQGTQVTVSS | low polyreactivity |
| QVQLVESGGGLVQAGGSLRLSCAASGSNFTWYAMGWYRQAPGKERELVADIDWSGGSTYYADSVKGRFTISRDNAKNTVYLQMNSLKPEDTAVYYCNAVFLFYEYWGQGTQVTVSS | low polyreactivity |
| QVQLVESGGGLVQAGGSLRLSCAASGSNFTYNRMGWYRQAPGKEREFVDAITWTGGSTYAYSVKGRFTISRDNAKNTVYLQINSLKPEDTAVYYCAAVRRISWYTPVITRRYYYWGQGTQVTVSS | high polyreactivity |
| QVQLVESGGGLVQAGGSLRLSCAASGSNFVYNAMGWYRQAPGKERELVAVINKSGDTTYYADSVKGRFTISRDNAKNTVYLQMNSLKPEDTAVYYCNASGEVLAAVVTYDYWGQGTQVTVSS | low polyreactivity |
| QVQLVESGGGLVQAGGSLRLSCAASGSNFWRKAMGWYRQAPGKERELVAAITCGGSTYYADSVKGRCTISRDNAKNTVYLQMNSLKTEVTAVYYCAAGYSYRYGYWGQGTQVTVSS | low polyreactivity |
| QVQLVESGGGLVQAGGSLRLSCAASGSNFYDNAMGWYRQAPGKERELLAAITTSGDSTYYADSVKGPFTISRDNAKNTVYLQMNSLKPEDTAVYYCAARPRVRSSYRYYYWGQGTQVTVSS | high polyreactivity |
| QVQLVESGGGLVQAGGSLRLSCAASGSNFYSYAMGWYRQAPGKERELVAAITGDGGSTYYADSVKGRFTISRDNAKNTVYLQRNSLKPEDTAVYYCAVPHTYRRYDYWGQGTQVTVSS | low polyreactivity |
| QVQLVESGGGLVQAGGSLRLSCAASGSNIKYYAMGWYRQAPGKERELVARITSDGGSTFYADSVKGRFTISRDNAKNTVYLQMNSLKPEDTAVYYCNTAYAFRHCWFYPMDYWGQGTQVTVSS | high polyreactivity |
| QVQLVESGGGLVQAGGSLRLSCAASGSNILQNAMGWYRQAPGKERELVAAITNGGSTNYADSVKGRFTISRDNAKNTVYLQMNSLKPDDTAVYYCAAYPLYTGSYDRGGYWGQGTQVTVSS | low polyreactivity |
| QVQLVESGGGLVQAGGSLRLSCAASGSNISQNAMGWYRQAPGKERELVASITYSGGSTYYADSVKGRFTISRDNAKNTVYLQMNSLKPEVTAVYYCAADVRYSSRFYYWGQGTQVTVSS | high polyreactivity |
| QVQLVESGGGLVQAGGSLRLSCAASGSNIYTYAMGWYRHAPGKERELVAAISSGGSTTYADSVKGRFTISRDNAKNTVYLEMISLKPEDTAVYYCAADGASRALYDYWGQGTQVTVSS | high polyreactivity |
| QVQLVESGGGLVQAGGSLRLSCAASGSNLATYTMGWYRQEPGKERELVAAISFGGSTYYADSVKGRFTISRDNAKNTDYLQMNSLKPEDTAVYYCAVYGDSYWGAYYYSDGYWGQGTQVTVSS | low polyreactivity |

— the nanobody polyreactivity screen of Harvey et al. (2022)
